# B1: Leucine-rich repeat transmembrane neuronal protein 2 (Homo sapiens), O43300 (parent)
# chain: MGLHFKWPLGAPMLAAIYAMSMVLKMLPALGMACPPKCRCEKLLFYCDSQGFHSVPNATDKGSLGLSLRHNHITELERDQFASFSQLTWLHLDHNQISTVKEDAFQGLYKLKELILSSNKIFYLPNTTFTQLINLQNLDLSFNQLSSLHPELFYGLRKLQTLHLRSNSLRTIPVRLFWDCRSLEFLDLSTNRLRSLARNGFAGLIKLRELHLEHNQLTKINFAHFLRLSSLHTLFLQWNKISNLTCGMEWTWGTLEKLDLTGNEIKAIDLTVFETMPNLKILLMDNNKLNSLDSKILNSLRSLTTVGLSGNLWECSARICALASWLGSFQGRWEHSILCHSPDHTQGEDILDAVHGFQLCWNLSTTVTVMATTYRDPTTEYTKRISSSSYHVGDKEIPTTAGIAVTTEEHFPEPDNAIFTQRVITGTMALLFSFFFIIFIVFISRKCCPPTLRRIRQCSMVQNHRQLRSQTRLHMSNMSDQGPYNEYEPTHEGPFIIINGYGQCKCQQLPYKECEV
# Variants of: B1
# Conditions: with NRXN1, P58400-1
# Sequence of NRXN1, P58400-1 (P58400 other isoform, or with tags, fused parts or gaps): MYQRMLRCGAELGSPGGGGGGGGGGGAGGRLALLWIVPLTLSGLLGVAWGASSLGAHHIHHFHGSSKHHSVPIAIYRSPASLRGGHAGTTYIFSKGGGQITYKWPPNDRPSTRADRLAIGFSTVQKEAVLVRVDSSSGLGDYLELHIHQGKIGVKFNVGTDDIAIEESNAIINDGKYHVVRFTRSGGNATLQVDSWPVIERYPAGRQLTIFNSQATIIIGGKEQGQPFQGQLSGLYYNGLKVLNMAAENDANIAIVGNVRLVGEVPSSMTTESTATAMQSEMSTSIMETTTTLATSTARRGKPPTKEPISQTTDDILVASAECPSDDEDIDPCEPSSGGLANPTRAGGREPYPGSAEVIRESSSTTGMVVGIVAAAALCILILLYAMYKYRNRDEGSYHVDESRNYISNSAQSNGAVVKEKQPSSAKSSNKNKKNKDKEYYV
row,Variant,effect of a mutation on the interaction
1,MGLHFKWPLGAPMLAAIYAMSMVLKMLPALGMACPPKCRCEKLLFYCDSQGFHSVPNATDKGSLGLSLRHNHITELERDQFASFSQLTWLHLDHNQISTVKEDAFQGLYKLKELILSSNKIFYLPNTTFTQLINLQNLDLSFNQLSSLHPELFYGLRKLQTLHLRSNSLRTIPVRLFWDCRSLEFLDLSTNRLRSLARNGFAGLIKLRELHLEHNQLTKINFAHFLRLSSLHTLFLQWNKISNLTCGMEWTWGTLEKLDLTGNEIKAIDLTVFETMPNLKILLMDNNKLNSLDSKILNSLRSLTTVGLSGNLWECSARICALASWLGSFQGRWEHSILCHSPDHTQGEDILDAVAGFQLCWNLSTTVTVMATTYRDPTTEYTKRISSSSYHVGDKEIPTTAGIAVTTEEHFPEPDNAIFTQRVITGTMALLFSFFFIIFIVFISRKCCPPTLRRIRQCSMVQNHRQLRSQTRLHMSNMSDQGPYNEYEPTHEGPFIIINGYGQCKCQQLPYKECEV [H355A],with no effect
2,MGLHFKWPLGAPMLAAIYAMSMVLKMLPALGMACPPKCRCEKLLFYCDSQGFHSVPNATDKGSLGLSLRHNHITELERDQFASFSQLTWLHLDHNQISTVKEDAFQGLYKLKELILSSNKIFYLPNTTFTQLINLQNLDLSFNQLSSLHPELFYGLRKLQTLHLRSNSLRTIPVRLFWDCRSLEFLDLSTNRLRSLARNGFAGLIKLRELHLEHNQLTKINFAHFLRLSSLHTLFLQWNKISNLTCGMEWTWGTLEKLDLTGNEIKAIDLTVFETMPNLKILLMDNNKLNSLDSKILNSLRSLTTVGLSGNLWECSARICALASWLGSFQGRWEHSILCHSPDHTQGEDILAAVHGFQLCWNLSTTVTVMATTYRDPTTEYTKRISSSSYHVGDKEIPTTAGIAVTTEEHFPEPDNAIFTQRVITGTMALLFSFFFIIFIVFISRKCCPPTLRRIRQCSMVQNHRQLRSQTRLHMSNMSDQGPYNEYEPTHEGPFIIINGYGQCKCQQLPYKECEV [D352A],decreasing interaction strength
3,MGLHFKWPLGAPMLAAIYAMSMVLKMLPALGMACPPKCRCEKLLFYCDSQGFHSVPNATDKGSLGLSLRHNHITELERDQFASFSQLTWLHLDHNQISTVKEDAFQGLYKLKELILSSNKIFYLPNTTFTQLINLQNLDLSFNQLSSLHPELFYGLRKLQTLHLRSNSLRTIPVRLFWDCRSLEFLDLSTNRLRSLARNGFAGLIKLRELHLEHNQLTKINFAHFLRLSSLHTLFLQWNKISNLTCGMEWTWGTLEKLDLTGNEIKAIDLTVFETMPNLKILLMDNNKLNSLDSKILNSLRSLTTVGLSGNLWECSARICALASWLGSFQGRWEHSILCHSPDHTQGEDILDAVHGAQLCWNLSTTVTVMATTYRDPTTEYTKRISSSSYHVGDKEIPTTAGIAVTTEEHFPEPDNAIFTQRVITGTMALLFSFFFIIFIVFISRKCCPPTLRRIRQCSMVQNHRQLRSQTRLHMSNMSDQGPYNEYEPTHEGPFIIINGYGQCKCQQLPYKECEV [F357A],decreasing interaction strength
4,MGLHFKWPLGAPMLAAIYAMSMVLKMLPALGMACPPKCRCEKLLFYCDSQGFHSVPNATDKGSLGLSLRHNHITELERDQFASFSQLTWLHLDHNQISTVKEDAFQGLYKLKELILSSNKIFYLPNTTFTQLINLQNLDLSFNQLSSLHPELFYGLRKLQTLHLRSNSLRTIPVRLFWDCRSLEFLDLSTNRLRSLARNGFAGLIKLRELHLEHNQLTKINFAHFLRLSSLHTLFLQWNKISNLTCGMEWTWGTLEKLDLTGNEIKAIDLTVFETMPNLKILLMDNNKLNSLDSKILNSLRSLTTVGLSGNLWECSARICALASWLGSFQGRWEHSILCHSPDHTQGQDILDAVHGFQLCWNLSTTVTVMATTYRDPTTEYTKRISSSSYHVGDKEIPTTAGIAVTTEEHFPEPDNAIFTQRVITGTMALLFSFFFIIFIVFISRKCCPPTLRRIRQCSMVQNHRQLRSQTRLHMSNMSDQGPYNEYEPTHEGPFIIINGYGQCKCQQLPYKECEV [E348Q],disrupting interaction strength
5,MGLHFKWPLGAPMLAAIYAMSMVLKMLPALGMACPPKCRCEKLLFYCDSQGFHSVPNATDKGSLGLSLRHNHITELERDQFASFSQLTWLHLDHNQISTVKEDAFQGLYKLKELILSSNKIFYLPNTTFTQLINLQNLDLSFNQLSSLHPELFYGLRKLQTLHLRSNSLRTIPVRLFWDCRSLEFLDLSTNRLRSLARNGFAGLIKLAELHLEHNQLTKINFAHFLRLSSLHTLFLQWNKISNLTCGMEWTWGTLEKLDLTGNEIKAIDLTVFETMPNLKILLMDNNKLNSLDSKILNSLRSLTTVGLSGNLWECSARICALASWLGSFQGRWEHSILCHSPDHTQGEDILDAVHGFQLCWNLSTTVTVMATTYRDPTTEYTKRISSSSYHVGDKEIPTTAGIAVTTEEHFPEPDNAIFTQRVITGTMALLFSFFFIIFIVFISRKCCPPTLRRIRQCSMVQNHRQLRSQTRLHMSNMSDQGPYNEYEPTHEGPFIIINGYGQCKCQQLPYKECEV [R208A],disrupting interaction strength
